According to article PMC4719083, “Myosin IXa Binds AMPAR and Regulates Synaptic Structure, LTP, and Cognitive Function” (Frontiers in Molecular Neuroscience, 2016):

Target: T1, GST C-terminal (Myo9a amino acids 2330-2626 fused to GST) (rat, UniProt Q9Z1N3 2330-2626)
T1 construct: Myosin IXa (Myo9a), rat, NCBI AJ001713, amino acids 2330-2626 (C-terminus); Cloned into pGEX-4T1; also called Myo9a GST C-term; Myo9a C-terminus; source: E. coli BL21, purified, immobilized on glutathione-Sepharose 4B beads
T1 sequence (looked up): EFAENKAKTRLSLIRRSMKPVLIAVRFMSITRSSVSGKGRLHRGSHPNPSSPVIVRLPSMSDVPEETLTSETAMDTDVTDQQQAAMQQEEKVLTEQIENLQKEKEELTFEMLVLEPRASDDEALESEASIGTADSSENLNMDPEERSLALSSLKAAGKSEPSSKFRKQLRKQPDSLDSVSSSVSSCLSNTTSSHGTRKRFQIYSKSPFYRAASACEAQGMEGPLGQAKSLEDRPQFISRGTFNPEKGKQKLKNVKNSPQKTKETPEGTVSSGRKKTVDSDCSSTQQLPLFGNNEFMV
Assay: pull-down; purified GluA2 C-term (released from GST by thrombin, in PBS) incubated with glutathione Sepharose 4B-coupled GST or GST C-term from Myo9a; immunoblot
Settings: both partners purified

binding result: binds
B1: GluA2 C-term (GluA2 intracellular C-terminal tail, amino acids 834-883, released from GST by thrombin) (domain or fragment, rat, UniProt P19491 834-883, looked up)
chain: EFCYKSRAEAKRMKVAKNPQNINPSSSQNSQNFATYKEGYNVYGIESVKI
notes: AMPA receptor subunit GluA2, rat, NCBI M85035, intracellular C-terminal tail, amino acids 834-883; Cloned into pGEX-4T1; also called purified GluA2 C-terminus; GluA2 C-terminal tail; source: E. coli BL21, purified with glutathione-Sepharose 4B resin, released by thrombin
